The values below come from patent publication US10155811B2, “APLNR modulators and uses thereof” (Regeneron Pharmaceuticals, Inc., priority 2013, dated 2018).

Experiment [1] has as its target T1, hAPLNR (Homo sapiens, UniProt P35414).
T1 sequence (P35414 1-380): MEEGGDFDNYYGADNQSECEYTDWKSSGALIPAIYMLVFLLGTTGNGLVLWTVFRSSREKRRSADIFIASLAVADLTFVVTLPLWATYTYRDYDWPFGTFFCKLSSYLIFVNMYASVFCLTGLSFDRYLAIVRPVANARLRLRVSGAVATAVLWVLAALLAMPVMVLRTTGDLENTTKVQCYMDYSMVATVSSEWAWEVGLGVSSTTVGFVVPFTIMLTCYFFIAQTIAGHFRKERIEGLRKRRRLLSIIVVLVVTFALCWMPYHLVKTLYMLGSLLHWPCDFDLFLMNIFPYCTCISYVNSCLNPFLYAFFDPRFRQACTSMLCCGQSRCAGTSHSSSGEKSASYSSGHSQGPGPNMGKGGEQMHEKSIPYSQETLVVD
The experiment can be described thus: CRE assay of modified apelin peptides in HEK293/CRE-luc/hAPLNR cells. Details: expressed in transfected cells. It is filed as cell-based. The method, then: Briefly, an HEK293 cell line was transfected to stably express the full-length human hAPLNR (amino acids 1-380 of accession number NP_005152.1), along with a luciferase reporter [cAMP response element (CRE,4X)-luciferase]. […] After 5 hours of incubation at 37° C. in 5% CO2, luminescence was measured following the addition of One Glo reagent (Promega, #E6051) using a Victor X instrument (Perkin Elmer). The data were fit by nonlinear regression to a 4-parameter logistic equation with Prism 5 software (GraphPad).

The target in experiment [2] is T1, hAPLNR. In words: CRE-luciferase cyclic AMP assay, activation of hAPLNR (inhibition of Forskolin-induced cAMP) in HEK293/CRE-luc/hAPLNR cells. Details: expressed in transfected cells. It is filed as cell-based. The following applies: without Apelin; for % Activation at 100 nM mAb (at 10 uM Forskolin): Table 6A. The method, then:
The ability of anti-APLNR antibodies to activate hAPLNR-mediated cell signaling was measured using a cyclic AMP assay. The hAPLNR is a 7-transmembrane G-protein coupled receptor (GPCR).
(§1) The resulting cell line, HEK293/CRE-luc/hAPLNR, was maintained in DMEM containing 10% FBS, NEAA, pencillin/streptomycin, and 100 μg/mL Hygromycin B.
(§2) Testing of antibodies included a no antibody control.
(§3) The results of all assays were analyzed using nonlinear regression (4-parameter logistics) within Prism 5 software (GraphPad).

For another experiment, the system named is HEK293 parental cells. The experiment can be described thus: FACS binding to HEK293 parental cells. The following applies: Table 3; 10 μg/mL antibody; anti-mouse IgG Alexa 647. The protocol:
Binding ratios for human APLNR binding to purified anti-APLNR monoclonal antibodies were determined by a fluorescence-activated cell sorting (FACS) binding assay. […] The resulting stable cell lines, HEK293/CRE-luc/hAPLNR and HEK293/CRE-luc/MfAPLNR, were maintained in DMEM containing 10% FBS, NEAA, and penicillin/streptomycin with either 100 μg/mL Hygromycin B for hAPLNR cells or 500 μg/mL G418 for MfAPLNR cells.
For the FACS analysis, HEK293 parental, HEK293/CRE-luc/hAPLNR, and, HEK293/CRE-luc/mfAPLNR cells were dissociated using Enzyme Free Dissociation reagent (#S-004, Millipore, Billerica, Mass., USA) and 10^6 cells/well were plated onto 96-well v-bottom plates in PBS containing 1% FBS. […] Cells were then filtered and analyzed on Accuri Flow Cytometer (BD Biosciences, San Jose, Calif., USA). Unstained and secondary antibody alone controls were also tested for binding to all cell lines. […] Geometric mean (Geom. mean) of fluorescence for each antibody was then normalized to geometric mean of unstained cells to obtain relative binding of antibody (binding ratios) per each cell type: HEK293 (parental), HEK293/CRE-luc/hAPLNR and HEK293/CRE-luc/MfAPLNR.

For experiment [3], the target named is T1, hAPLNR. In words: CRE-luciferase cyclic AMP assay, inhibition of hAPLNR in the presence of 100 ρM Apelin in HEK293/CRE-luc/hAPLNR cells. The following applies: Table 6C. The experiment is classed as cell-based. More on the design: expressed in transfected cells. The method, then:
as §1, §2, §3

Experiment [4] has as its target T1, hAPLNR. The experiment can be described thus: retinal vascular development (RVD) model in humanized APLNR mouse pups. The experiment is classed as in vivo. More on the design: from tissue; host or cells: developing retina of humanized APLNR mouse pups (75% C57BL6 / 25% Sv129), in vivo. The method, then:
A retinal vascular development (RVD) model was used to evaluate the effects of an antagonistic anti-APLNR antibody on blood vessel outgrowth in the normal developing retina of mouse pups that were of a mixed background strain (75% C57BL6 and 25% Sv129) and homozygous for expression of human APLNR in place of mouse APLNR (humanized APLNR mice). Pups were subcutaneously injected on postnatal day 2 (P2) with either 50 mg/kg of an anti-APLNR antagonist antibody, H2aM9232N, or an irrelevant human Fc (hFc) control. Reagents were masked and labeled as Solution A and Solution B to prevent experimenter bias. At postnatal day 5, tissue samples were collected and then fixed in PBS containing 4% paraformaldehyde. Fixed tissue samples were washed with PBS three times for 15 minutes, and subsequently stained with GS Lectin I (Vector Laboratories, #FL-1101) diluted 1:200 in 1×PBS containing 1% BSA in 0.25% Triton-X 100 overnight at 25° C. to visualize retinal vasculature. The following day, stained samples were rinsed with PBS three times for 15 minutes each, flat-mounted onto slides, and coverslips were subsequently mounted using Prolong Gold (Invitrogen, #P36930). Images were taken at 20 times magnification using an epi-fluorescent microscope (Nikon Eclipse 80). The vascularized areas in the retina were measured from acquired images from this assay using Adobe Photoshop CS6 extended. Statistical differences between the results obtained from the IgG control antibody and H2aM9232N treated samples were assessed using a two tailed, unpaired Student T-test (**, p<0.001). Only after retinal vasculature area measurements and statistical analysis were completed, the sample identities were unmasked.

Where “and” joins values, the source holds several entries; their conditions need not be identical. Equal values may be shown once. Entries after “also recorded” stand apart in the source; their conditions may differ.

Consider `CSCC[C@H](NC(=O)[C@@H]1CCCN1C(=O)CNC(=O)[C@H](CCCCN)NC(=O)[C@H](Cc1c[nH]cn1)NC(=O)[C@H](CO)NC(=O)[C@H](CC(C)C)NC(=O)[C@H](CCCNC(=N)N)NC(=O)[C@@H]1CCCN1C(=O)[C@H](CCCNC(=N)N)NC(=O)[C@@H](N)CCC(N)=O)C(=O)N1CCC[C@H]1C(=O)N[C@@H](Cc1ccccc1)C(=O)NCC(=O)NCC(=O)NCC(=O)NCC(=O)NCC(=O)O` [Apelin-13 + 5G], for which, on hAPLNR [1], the “efficacy in the CRE assay relative to apelin-13” value is “retain full efficacy”.

B1: H2aM9227N: anti-APLNR antibody, HCVR/LCVR SEQ ID NO: 50/58, mouse IgG2a Fc (antibody, V domains shown)
VH: EVQLVESGGGLVQPGGSLRLSCAASGFTFSSFWMSWVRQVPGKGLEWVANIKQDGSEKYYVDSVKGRFTISRDNAKNSLYLQMNSLRAEDTAVYYCARDRFGYSFYDKGVRYYYGMDVWGQGTTVTVSS
VL: DIQMTQSPSSLSVSVGDRVTITCRASQGIRNDLGWYQQKPGKAPKRLIYATSSLQSGVPSRFSGSGSGTEFTLTISGLQPEDFATYYCLQHNSYPRTFGQGTKVEIK
modifications: mouse IgG2a Fc
Consider B1, for which, in the experiment with hAPLNR [2] (% of maximum Apelin activation), the “% Activation at 100 nM mAb (at 10 uM Forskolin)” value (“% Activation at 100 nM mAb” for short) was determined as 12%. Besides, in the experiment with hAPLNR [2] (100 nM highest antibody dose tested), the “activation of hAPLNR, % of maximum Apelin activation at 100 nM” value is 12%. For the same molecule, the “Binding Ratio of Geom. Mean to Unstained Cells, HEK293 Parental” value (shortened to “Binding Ratio of Geom. Mean”) with HEK293 parental cells amounted to 4.

B2: H2aM9222N: anti-APLNR antibody, HCVR/LCVR SEQ ID NO: 34/42, mouse IgG2a Fc (antibody, V domains shown)
VH: EVQLVESGGGLVQPGGSLRLSCAASGFTFSNYWMSWVRQAPGKGLEWVANIKQDGSERYYVGSVKGRFTISRGDAENSLYLQMNSLRAEDTAVYYCARDRFGYSAYDKGVRYYYGMDVWGQGTTVTVSS
VL: DIQMTQSPSSLSASVGDRVTITCRASQGIRNDLGWYQQKPGKAPKRLIYAASSLQSGVPSRFSGSGSGTEFTLTISSLQPEDFATYYCLQHNSYPRTFGQGTKVEIK
modifications: mouse IgG2a Fc
B2: in the experiment with hAPLNR [3], the “% Inhibition at 100 nM antibody, in the presence of 100 ρM Apelin (at 5 μM Forskolin)” value was 11% (IC). In addition, in the experiment with hAPLNR [2] (% of maximum Apelin activation), the “% Activation at 100 nM mAb” value is given as “No Activation”. The “Binding Ratio of Geom. Mean” value in the experiment with HEK293 parental cells is 2.

B3: H2aM9228N: anti-APLNR antibody, HCVR/LCVR SEQ ID NO: 66/74, mouse IgG2a Fc (antibody, V domains shown)
VH: EVQLVESGGGLVQPGGSLRLSCAASGFTFSNYWMSWVRLAPGKGLEWVANIKQDGSERYYVGSVKGRFTISRGDAKNSLYLQMNSLRAEDTAVYYCARDRFGYSAFDKGVRYYYGMDVWGQGTTVTVSS
VL: DIQMTQSPSSLSASVGDRVTITCRASQGIRNDLGWYQQKPGKAPKRLIYAASSLQSGVPSRFSGSGSGTEFTLTISSLQPEDFATYYCLQHNSYPRTFGQGTKVEIK
modifications: mouse IgG2a Fc
With B3, the “% Activation at 100 nM mAb” value with hAPLNR [2] (% of maximum Apelin activation) is “No Activation”. Also, in the experiment with HEK293 parental cells, the “Binding Ratio of Geom. Mean” value is listed as 3.

B4: H2aM9230N: anti-APLNR antibody, HCVR/LCVR SEQ ID NO: 82/90, mouse IgG2a Fc (antibody, V domains shown)
VH: EVQLVESGGGLVQPGGSLRLSCAASGFTFSSFWMSWVRQVPGKGLQWVANIKQDGSEKYYVDSVKGRFTISRDNAKNSLYLQMNSLRAEDTAVYYCARDRFGYSVYDKGVRYYYGMDVWGQGTTVTVSS
VL: DIQMTQSPSSLSVSVGDRVTITCRASQGIRNDLGWYQQKPGKAPKRLIYAASSLQSGVPSRFSGSGSGTEFTLTISGLQSEDFATYYCLQHKSYPRTFGQGTKVEIK
modifications: mouse IgG2a Fc
Take B4: in the experiment with hAPLNR [2] (% of maximum Apelin activation), the “% Activation at 100 nM mAb” value is “No Activation”. Also, the “Binding Ratio of Geom. Mean” value with HEK293 parental cells worked out at 3.

B5: H2aM9232N: antagonistic anti-APLNR antibody, HCVR/LCVR SEQ ID NO: 98/106, mouse IgG2a Fc (antibody, V domains shown)
VH: QVKLVESGGGVVQPGRSLRLSCAASGFTFSNYVIHWVRQAPGKGLEWVAVIWYDGSNKYYADSVKGRFTISRDNSKNTLYLQMNSLRAEDTAVYYCARDRVVRGVDYYYYYGLDVWGQGTSVTVSS
VL: EIVMTQSPATLSVSPGERATLSCRASQSVRSNLAWYQQKPGQAPRLLIYGASSRATGIPARFSGTGSGTEFTLTISSLQSDDFAVYYCQQYNKWPRTFGQGTKVEIK
modifications: mouse IgG2a Fc
In the case of B5, in the experiment with hAPLNR [2] (% of maximum Apelin activation), the “% Activation at 100 nM mAb” value is given as “No Activation”. In addition, in the experiment with hAPLNR [2] (Table 6B, % of maximum Apelin activation), the “% Activation at 500 nM mAb (at […] Forskolin)” value was “did not demonstrate any measurable activation; also recorded: No Activation”. Also, the “Binding Ratio of Geom. Mean” value in the experiment with HEK293 parental cells was determined as 6. In addition, the “Retinal blood vessel outgrowth (mm^2), MEAN” value with hAPLNR [4] (group mean, 50 mg/kg subcutaneous at P2, measured at P5) is on record as 2.84 mm^2. Further, the “Retinal blood vessel outgrowth (mm^2)” value with hAPLNR [4] (individual eyes (OD/OS), 50 mg/kg subcutaneous at P2, measured at P5, 50 mg/kg) is 2.49 mm^2 and 3.04 mm^2 and 3.57 mm^2 and 3.32 mm^2 and 2.23 mm^2 and 2.36 mm^2. Also, the “mean reduction in retinal blood vessel outgrowth compared to control (hFc)” value in the experiment with hAPLNR [4] (single subcutaneous injection 50 mg/kg, postnatal day 5) is on record as “approximately 30%”.

B6: H1M9207N: anti-APLNR antibody, HCVR/LCVR SEQ ID NO: 2/10, mouse IgG1 Fc (antibody, V domains shown)
VH: EVQLVESGGGLAQPGGSLRLSCAASGFTFSNYWMSWVRQAPGKGLEWVANIKQDGSEKYYLESVKGRFTISRDNAKNLLYLQMNSLRAEDTAVFYCARPGLLRFLEPGRRYYSGMNVWGQGTTVTVSS
VL: DIQLTQSPSFLSASVGDRVTITCWASQGIRSYLAWYQQKPGKAPKLLIYAASTLQSGVPSRFSGSGSGTEFTLTISSLQPEDFATYYCQQFNSYPWTFGQGTKVEIK
modifications: mouse IgG1 Fc
In the case of B6, the “% Activation at 100 nM mAb” value with hAPLNR [2] (% of maximum Apelin activation) was “No Activation”. For the same molecule, in the experiment on HEK293 parental cells, the “Binding Ratio of Geom. Mean” value came out at 4.
